Data taken from patent US20030143158A1 (DYAX, published 2003).
Ends that are not written are not given here. fluorescein = fluorescein label on the lysine side chain

How the values were obtained:
fibrinogen = target: T1, fibrinogen (UniProt P02671 20-629; P02675 31-491; P02679 27-437, limits assumed); assay: phage ELISA on immobilised fibrinogen
T1 construct: Biotinylated and immobilised through streptavidin for ELISA
T1 sequence (looked up) 1: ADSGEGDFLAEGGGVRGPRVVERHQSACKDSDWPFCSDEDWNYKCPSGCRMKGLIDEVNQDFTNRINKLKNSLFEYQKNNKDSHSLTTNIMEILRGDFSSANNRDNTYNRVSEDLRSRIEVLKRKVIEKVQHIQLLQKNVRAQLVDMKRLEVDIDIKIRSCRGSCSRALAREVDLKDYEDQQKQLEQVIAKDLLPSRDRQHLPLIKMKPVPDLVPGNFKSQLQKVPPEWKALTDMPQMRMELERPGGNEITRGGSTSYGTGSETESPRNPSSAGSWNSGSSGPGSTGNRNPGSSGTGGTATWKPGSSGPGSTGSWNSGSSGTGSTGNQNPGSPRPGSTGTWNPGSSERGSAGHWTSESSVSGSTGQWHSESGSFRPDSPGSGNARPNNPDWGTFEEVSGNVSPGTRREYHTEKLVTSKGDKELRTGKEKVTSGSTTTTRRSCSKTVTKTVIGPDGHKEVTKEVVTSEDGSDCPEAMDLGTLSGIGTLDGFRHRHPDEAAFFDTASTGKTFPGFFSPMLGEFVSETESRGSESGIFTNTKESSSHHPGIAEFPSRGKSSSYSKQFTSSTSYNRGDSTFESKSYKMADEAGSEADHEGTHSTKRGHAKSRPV
T1 sequence (looked up) 2: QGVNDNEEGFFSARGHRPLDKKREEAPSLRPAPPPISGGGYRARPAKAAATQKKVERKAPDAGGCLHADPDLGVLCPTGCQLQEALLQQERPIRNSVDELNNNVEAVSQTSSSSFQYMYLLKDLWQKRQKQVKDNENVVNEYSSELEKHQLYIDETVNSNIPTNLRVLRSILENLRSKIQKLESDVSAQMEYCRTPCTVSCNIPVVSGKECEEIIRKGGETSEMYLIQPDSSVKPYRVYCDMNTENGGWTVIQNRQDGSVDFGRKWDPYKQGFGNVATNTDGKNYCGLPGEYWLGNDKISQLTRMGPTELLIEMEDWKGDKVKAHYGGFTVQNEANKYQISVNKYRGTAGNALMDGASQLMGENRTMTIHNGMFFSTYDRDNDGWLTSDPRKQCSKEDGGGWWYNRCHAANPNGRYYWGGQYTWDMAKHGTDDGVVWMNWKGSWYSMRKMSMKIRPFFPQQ
T1 sequence (looked up) 3: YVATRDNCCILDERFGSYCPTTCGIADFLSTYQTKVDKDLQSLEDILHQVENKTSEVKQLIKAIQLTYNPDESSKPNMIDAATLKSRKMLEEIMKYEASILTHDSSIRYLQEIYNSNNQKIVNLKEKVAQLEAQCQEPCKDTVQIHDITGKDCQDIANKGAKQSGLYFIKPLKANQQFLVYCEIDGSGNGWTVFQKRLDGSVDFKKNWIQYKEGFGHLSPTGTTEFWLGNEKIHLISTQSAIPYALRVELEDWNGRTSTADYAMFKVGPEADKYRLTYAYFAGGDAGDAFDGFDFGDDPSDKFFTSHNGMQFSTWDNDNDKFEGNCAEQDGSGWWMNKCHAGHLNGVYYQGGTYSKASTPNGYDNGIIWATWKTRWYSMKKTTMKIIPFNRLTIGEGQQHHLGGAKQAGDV
Procedure: After five rounds of selection, the eluted phage were propagated and a portion plated to isolate phage plaques arising from individual clones. Ninety such clones were selected randomly, propagated, and tested individually for binding to fibrin in a dried fibrin plate assay. Dried fibrin plates were prepared as described above for the library screening. Phage samples (˜10⁹ phage each) were incubated in the dried fibrin plate wells in binding buffer (50 mM Tris, 150 mM NaCl, 2 mM CaCl₂, 0.05% Tween-20) containing 0.1% HSA. After 1 hour, the plates were washed 5 times with binding buffer. Anti-M13 antibody conjugated to horseradish peroxidase (Pharmacia) was added at 1/5000 dilution in binding buffer to the wells and incubated with the fibrin for 1 hour. The wells were again washed 5 times with binding buffer and the presence of the antibody/phage/fibrin complex was measured with HRP calorimetric reagents (3,3′,5,5′-tetramethylbenzidine (TMB) and […]). A high absorbance at 595 nm (due to oxidized TMB) was indicative of a tight phage/fibrin interaction, and phage clones corresponding to those wells were identified as bearing fibrin-binding moieties.
These fibrin-binding positive clones were subjected to several secondary ELISA assays. These assays followed a similar protocol to that detailed above for the dried fibrin ELISA assay, the only variations being the method of target immobilization and the omission of HSA from binding and wash buffers. A screen against DD(E) acted as a further confirmation of fibrin binding activity. […] Finally, ELISAs to assay binding to immobilized HSA (passively bound to the polystyrene plate) and a target-free microtiter plate were controls to eliminate phage that bound promiscuously or nonspecifically.
The ELISAs were performed as described above.

[1] = target: DD(E), soluble fibrin-derived polypeptide (complex of DD dimer with the central E domain of fibrin) (human) (UniProt P02671); assay: fluorescence polarization (anisotropy), fluorescein-labeled peptide with DD(E)
[2] = target: DD(E), soluble fibrin-derived polypeptide (complex of DD dimer with the central E domain of fibrin) (human) (UniProt P02671); assay: fluorescence anisotropy (polarization): fluorescein-labeled peptide titrated with DD(E) protein
fibrin = target: T2, fibrin (UniProt P02671 36-629; P02675 45-491; P02679 27-437, limits assumed); assay: equilibrium binding to dried fibrin plates, free peptide measured by mass spectrometry
T2 construct: Polymerised fibrin formed on 96-well plates from fibrinogen and thrombin; also called dried fibrin; fibrin target
T2 sequence (looked up) 1: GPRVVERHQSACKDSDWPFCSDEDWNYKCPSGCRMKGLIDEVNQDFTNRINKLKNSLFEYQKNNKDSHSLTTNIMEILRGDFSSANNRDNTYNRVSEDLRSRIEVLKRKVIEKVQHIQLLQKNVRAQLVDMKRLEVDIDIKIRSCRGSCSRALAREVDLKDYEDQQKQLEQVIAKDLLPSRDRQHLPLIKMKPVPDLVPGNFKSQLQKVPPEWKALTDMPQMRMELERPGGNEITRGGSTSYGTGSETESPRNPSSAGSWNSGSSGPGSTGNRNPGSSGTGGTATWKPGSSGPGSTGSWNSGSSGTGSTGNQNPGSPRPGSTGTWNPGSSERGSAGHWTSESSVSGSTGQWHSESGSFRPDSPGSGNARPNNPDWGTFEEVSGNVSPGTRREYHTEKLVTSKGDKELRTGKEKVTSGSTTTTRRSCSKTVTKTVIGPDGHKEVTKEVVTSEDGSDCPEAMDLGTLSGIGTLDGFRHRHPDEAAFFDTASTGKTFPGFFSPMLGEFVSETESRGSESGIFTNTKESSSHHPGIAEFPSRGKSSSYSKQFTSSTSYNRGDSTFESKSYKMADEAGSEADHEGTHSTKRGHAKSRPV
T2 sequence (looked up) 2: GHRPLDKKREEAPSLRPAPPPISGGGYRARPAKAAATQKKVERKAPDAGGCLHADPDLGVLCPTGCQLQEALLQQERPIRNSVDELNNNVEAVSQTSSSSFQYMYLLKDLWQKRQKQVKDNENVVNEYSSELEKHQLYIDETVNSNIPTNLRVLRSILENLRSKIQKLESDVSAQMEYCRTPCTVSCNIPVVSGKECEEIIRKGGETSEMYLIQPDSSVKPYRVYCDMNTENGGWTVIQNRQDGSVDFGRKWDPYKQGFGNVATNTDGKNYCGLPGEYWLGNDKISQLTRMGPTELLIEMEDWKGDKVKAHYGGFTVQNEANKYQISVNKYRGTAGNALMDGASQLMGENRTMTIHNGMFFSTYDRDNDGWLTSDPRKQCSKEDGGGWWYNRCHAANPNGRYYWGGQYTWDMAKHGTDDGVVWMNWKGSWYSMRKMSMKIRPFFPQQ
T2 sequence (looked up) 3: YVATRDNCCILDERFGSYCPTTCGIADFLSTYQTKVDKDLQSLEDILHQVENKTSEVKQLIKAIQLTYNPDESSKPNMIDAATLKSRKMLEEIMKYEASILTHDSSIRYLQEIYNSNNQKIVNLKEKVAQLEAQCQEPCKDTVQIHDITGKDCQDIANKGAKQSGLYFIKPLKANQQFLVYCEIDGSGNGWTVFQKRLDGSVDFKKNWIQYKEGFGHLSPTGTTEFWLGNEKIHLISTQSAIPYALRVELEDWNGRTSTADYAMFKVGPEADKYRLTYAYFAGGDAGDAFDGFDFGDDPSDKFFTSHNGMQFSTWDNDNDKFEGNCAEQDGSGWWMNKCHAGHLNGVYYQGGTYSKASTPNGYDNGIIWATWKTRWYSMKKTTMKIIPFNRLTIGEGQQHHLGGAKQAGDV
Procedure: A fibrinogen solution was prepared at 10 mg/ml (or at twice the concentration of fibrin desired) in TBS buffer (50 mM Tris, 150 mM NaCl, pH 7.4). The fibrinogen solution typically contained ˜17 mM citrate. Subsequently, a solution was prepared containing 2 U/ml thrombin, 20 mM CaCl₂, and 5 mM ε-aminocaproic acid in TBS. The fibrinogen solution and thrombin solution were mixed 1:1 in the wells of a 96-well plate, aliquoting 50 μL of each solution in each well (total volume=100 μL). The plates were evaporated to dryness overnight at 37° C. The polypeptide to be tested, dissolved in water, was added to each well at concentrations between 1-200 μM. […] The plate containing the peptide and (rehydrated) dried fibrin was covered and incubated at 37° C. on a shaker table for 2 hours.
The supernatant in each well was removed by pipette and the concentration of the polypeptide was measured by mass spectrometry. The ion current detected at the mass of the peptide was monitored after injection of a sample into the mass spectrometer. The area-under-the-peak was quantified and compared to standards of known concentration. The concentration of peptide in the supernatant is equal to the concentration of free peptide. The concentration of bound peptide was determined by subtracting the concentration of free peptide from the total (starting) concentration. […]

B1: phage isolate 002-35-E01 (peptide)
peptide: WELCSDENWLWCWPH
modifications: not fully specified (bridges); cysteine pairing not given here; also: displayed on M13 phage
notes: The two Cys are believed to form a disulfide
B1: no binding (fibrinogen).

B2: synthetic fibrin-binding peptide DX-304 (peptide)
peptide: Ac-WAPCQEEPWLFCFHGGGGK(fluorescein)-NH2
modifications: not fully specified; printed as Ac-WAPCQEEPWLFCFHGGGGK(fluorescein)-NH2; cysteine pairing not given here
B2 showed a Kd [1] of 0.4 µM and a Kd [2] of 0.35 µM.

RAPCDYYGTCVEL [phage isolate 002-36-H04]: no binding (fibrinogen).

WAPCQEEPWLFCFHG [phage isolate 002-37-D02]: no binding (fibrinogen).

WQPCPWESWTFCWDP [phage isolate 002-37-C11]: no binding (fibrinogen).

WKACPGEDWLFCWGS [phage isolate 002-37-H02]: no binding (fibrinogen).

WMMCPMSEWLYCWSA [phage isolate 002-36-A02]: no binding (fibrinogen).

B3: synthetic fibrin-binding peptide DX-303 (peptide)
peptide: Ac-WQPCPWESWTFCWDPGGGK(fluorescein)-NH2
modifications: not fully specified; printed as Ac-WQPCPWESWTFCWDPGGGK(fluorescein)-NH2; cysteine pairing not given here
B3 gave a Kd [1] of 0.5 µM and a Kd [2] of 0.5 µM.

B4: synthetic peptide DX-101 (peptide)
peptide: AEGTGSQWECPYGLCWIQAPGK
modifications: not fully specified (bridges); printed as Ala-Glu-Gly-Thr-Gly-Ser-Gln-Trp-Glu-Cys-Pro-Tyr-Gly-Leu-Cys-Trp-Ile-Gln-Ala-Pro-Gly-Lys; cysteine pairing not given here
Work on B4 yielded a Kd (fibrin) of 0.7 µM.
